The source of these data is paper PMC5431922.

Test [1] has as its target 20.8-kDa tegumental-allergen-like protein from Clonorchis sinensis (CsTAL3), full-length (aa 1-184) (Clonorchis sinensis). The test can be described thus: AUC; sedimentation velocity, 20 °C, 2.5 and 0.6 mg/mL, 50 x 10^3 rpm, interference optics, c(s) analysis; without CaCl2 and with 5 mM CaCl2.
For test [2] the target is unchanged. The test can be described thus: SAXS; 20 °C, 20 mM Tris-HCl pH 7.5, 100 mM NaCl, without or with 5 mM CaCl2; 1.9 to 5.2 mg/mL; molecular mass estimated against standard proteins.

Consider “20.8-kDa tegumental-allergen-like protein from Clonorchis sinensis (CsTAL3), full-length (aa 1-184) (natural protein)”, for which the stoichiometry N in test [1] and in test [2] was 2 throughout.
